These results are taken from US12643926B2, “LysM receptor motifs” (Aarhus Universitet, priority 2020, dated 2026).

The assay can be described thus: Biolayer interferometry of LYS11 ectodomains binding to CO5. To be noted: BLI; result in words. The procedure:
Binding of L. japonicus LYS11 ectodomain and domain-swapped versions of L. japonicus LYS11 ectodomain to ligands was measured on an Octet RED 96 system (Pall ForteBio). The ligands used were CO5 chitin oligomer (corresponding to the backbone of S. meliloti Nod factor LCO-V), M. loti Nod factor LCO, and S. meliloti Nod factor LCO. S. meliloti LCO consists of a tetrameric/pentameric N-acetylglucosamine backbone that is O-sulfated on the reducing terminal residue, O-acetylated on the non-reducing terminal residue, and mono-N-acylated by unsaturated C16 acyl groups. M. loti LCO is a pentameric N-acetylglucosamine with a cis-vaccenic acid and a carbamoyl group at the non-reducing terminal residue together with a 2,4-O-acetylfucose at the reducing terminal residue. Biotinylated ligand conjugates were immobilized on streptavidin biosensors (kinetic quality, Pall ForteBio) at a concentration of 125-250 nM for 5 minutes. Data analysis was performed in GraphPad Prism 6 software (GraphPad Software, Inc.). Equilibrium dissociation constants derived from the steady-state were determined by applying a non-linear regression (one site, specific binding) to the response at equilibrium plotted against the protein concentration. Kinetic parameters were determined by non-linear regression (association followed by dissociation) on the subtracted data. […]

B1: L. japonicus LYS11 ectodomain: L. japonicus LYS11 ectodomain (residues 26-234 of SEQ ID NO: 255), 6xHis tag, insect cell expressed (protein)
chain: LAQLSHTNGTNFSCPVDSPPSCDTYVTYFAQSPNFLTLTSISDLFDTSPLSIARASNIKDENQNLVPGQLLLVPVTCACSGSNSFSNISHMIKEGESYYYLSTTSYENLTNWETVQDSNPNYNPYLLPVGIKVVIPLFCKCPSNYHLNKGIEYLITYVWHNNDNVSLVASKFGVSTQDIISENNFSHQNFTAATNFPILIPVTQLPSLS
modifications: 6xHis tag; Xaa = hydrophobic patch residues; Xaa = residues immediately adjacent to hydrophobic patch residues
Regarding B1, the “binding to CO5 (chitin)” value is “able to bind CO5”.
